The results in this text go back to patent publication US20040059519A1.

Values joined by “and” are separate entries in the source; they are usually repeats but may differ in a detail not shown here. Equal values may be shown once.

For assay [1], the target named is Alpha fetoprotein (UniProt P02771). In words: multiplex sandwich, S10473 capture beads; AFP 16 ng/mL, washed.
For assay [2] the target is unchanged. In words: multiplex sandwich, S10473 capture beads; AFP 8 ng/mL, no wash.
Assay [3] has the same target. In words: multiplex sandwich, S10473 capture beads; AFP 0.5 ng/mL, washed.
The target is the same in assay [4]. In words: multiplex sandwich, S10473 capture beads; AFP 250 ng/mL, washed.
Assay [5] shares this target. In words: multiplex sandwich, S10473 capture beads; AFP 500 ng/mL, no wash.
For assay [6] the target is unchanged. In words: multiplex sandwich, S10473 capture beads; AFP 1000 ng/mL, no wash.
In assay [7] the target is Human chorionic gonadotropin (human) (UniProt P01215). In words: MAB602 capture beads, flow cytometry; hCG 0.1 ng/mL, anti-AFP probe.
Chain of UniProt P01215 (P01215 25-116, chain 1 of 2, other chains not shown): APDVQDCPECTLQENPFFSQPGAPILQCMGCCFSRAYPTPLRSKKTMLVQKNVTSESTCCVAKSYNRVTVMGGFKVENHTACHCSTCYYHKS
Assay [8] has the same target. In words: MAB602 capture beads, flow cytometry; hCG 10.0 ng/mL, anti-AFP probe. A general note: A flow cytometer gives signals particle by particle.
Assay [9] has the same target. In words: MAB602 capture beads, flow cytometry; hCG 1000.0 ng/mL, anti-AFP probe.
The target in assay [10] is Alpha fetoprotein (UniProt P02771). In words: multiplex no-wash sandwich, S10473 beads; Negative serum, AFP 2 U/mL.
The target of assay [11] is Neutravidin (deglycosylated avidin) (UniProt P02701). In words: multiplex, Neutravidin bead 40/40 without peptide, flow cytometry.
Chain of UniProt P02701 (P02701 25-152 limits assumed): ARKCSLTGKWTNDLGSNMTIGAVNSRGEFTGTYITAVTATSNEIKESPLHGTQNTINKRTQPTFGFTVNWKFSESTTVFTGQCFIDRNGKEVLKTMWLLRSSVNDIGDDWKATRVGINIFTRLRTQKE
Assay [12] shares this target. In words: multiplex, Neutravidin bead 40/50 without peptide, flow cytometry.
For assay [13] the target is unchanged. In words: multiplex, Neutravidin bead 60/70 without peptide, flow cytometry.
The target is the same in assay [14]. In words: multiplex, Neutravidin bead 70/60 without peptide, flow cytometry.
For assay [15] the target is unchanged. In words: single-analyte, Neutravidin bead 40/40 without peptide, flow cytometry.
Assay [16] has the same target. In words: single-analyte, Neutravidin bead 70/60 without peptide, flow cytometry.
A further assay deals with Peptide 1 …-biotin. In words: multiplex peptide beads, flow cytometry; beads pre-incubated with free biotin 10 ug/mL.
The target of assay [17] is Peptide 5 …-biotin (human). The description is as above.
The next assay concerns the target Peptide 6 …-biotin. The assay is described as above.
The next assay deals with Peptide 7 …-biotin. Described as above.
In a further assay the target is Peptide 9 …-biotin. The assay is described as above.
Assay [18] has as its target Human chorionic gonadotropin (human) (UniProt P01215). In words: sandwich, MAB602 capture beads, flow cytometry; hCG 2 ng/mL.
The target is the same in assay [19]. In words: multiplex sandwich, MAB602 capture beads; hCG 8 ng/mL, washed.
For assay [20] the target is unchanged. In words: sandwich, MAB602 capture beads, flow cytometry; hCG 0.02 ng/mL.
The target is the same in assay [21]. In words: bead sandwich, flow cytometry; capture A1 beads, hCG 20.0 ug/mL.
The target is the same in assay [22]. In words: multiplex sandwich, MAB602 capture beads; hCG 0.5 ng/mL, washed.
Assay [23] shares this target. In words: multiplex sandwich, MAB602 capture beads; hCG 62 ng/mL, no wash.
Assay [24] has the same target. In words: multiplex sandwich, MAB602 capture beads; hCG 1000 ng/mL, washed.
Assay [25] has the same target. In words: multiplex sandwich, MAB602 capture beads; hCG 125 ng/mL, no wash.
Assay [26] shares this target. In words: multiplex sandwich, MAB602 capture beads; hCG 500 ng/mL, no wash.
Assay [27] has the same target. In words: multiplex sandwich, MAB602 capture beads; hCG 2000 ng/mL, no wash.
The target is the same in assay [28]. In words: MAB602 capture beads, flow cytometry; hCG 0.1 ng/mL, anti-hCG probe.
The target is the same in assay [29]. In words: MAB602 capture beads, flow cytometry; hCG 1.0 ng/mL, anti-hCG probe.
For assay [30] the target is unchanged. In words: bead sandwich, flow cytometry; capture A1 beads, no hCG (background).
Assay [31] has the same target. In words: bead sandwich, flow cytometry; capture A3 beads, no hCG (background).
In assay [32] the target is Alpha fetoprotein (UniProt P02771). In words: anti-AFP capture beads, flow cytometry; AFP 1.0 ng/mL, anti-hCG probe.
Assay [33] deals with Human chorionic gonadotropin (human) (UniProt P01215). In words: multiplex no-wash sandwich, MAB602 beads; serum Level 3D, hCG 218 mU/mL.
Assay [34] has the same target. In words: bead sandwich, flow cytometry; capture A2 (MAB 602) beads, no hCG (background).
For assay [35] the target is unchanged. In words: multiplex no-wash sandwich, MAB602 beads; Negative serum, hCG 10 mU/mL as printed.
Assay [36] shares this target. In words: multiplex no-wash sandwich, MAB602 beads; Unknown serum, hCG computed 218.55 mU/mL.

Chain of UniProt P02771 (P02771 19-609 limits assumed): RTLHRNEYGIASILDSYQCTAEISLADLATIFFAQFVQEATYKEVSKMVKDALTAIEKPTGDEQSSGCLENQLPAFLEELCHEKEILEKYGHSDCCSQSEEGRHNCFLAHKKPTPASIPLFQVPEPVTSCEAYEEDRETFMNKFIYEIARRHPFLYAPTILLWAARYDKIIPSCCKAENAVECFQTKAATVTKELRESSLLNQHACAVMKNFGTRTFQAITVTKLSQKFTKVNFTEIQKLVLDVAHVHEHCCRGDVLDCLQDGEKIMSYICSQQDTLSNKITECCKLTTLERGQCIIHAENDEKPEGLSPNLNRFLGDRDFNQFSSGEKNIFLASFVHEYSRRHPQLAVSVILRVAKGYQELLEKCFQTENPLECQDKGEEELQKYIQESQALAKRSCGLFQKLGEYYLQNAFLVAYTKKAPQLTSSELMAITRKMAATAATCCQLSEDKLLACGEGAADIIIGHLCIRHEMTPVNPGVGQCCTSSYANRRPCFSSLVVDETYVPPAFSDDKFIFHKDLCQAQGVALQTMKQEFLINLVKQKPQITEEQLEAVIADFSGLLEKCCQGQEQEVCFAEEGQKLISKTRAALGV

For the substance “M20077 affinity purified polyclonal anti-AFP antibody, Bodipy FL-CASE labeled”, the MIF of Fm is 347 with Alpha fetoprotein [1]; 190 with Alpha fetoprotein [2]; 25 with Alpha fetoprotein [3]; 1200 with Alpha fetoprotein [4]; 643 in the assay with Alpha fetoprotein [5]; 379 with Alpha fetoprotein [6]. Also, the MIF of Fm in [7] was 49; in assay [8], 47; in assay [9] it was 47. This substance also showed an MIF AVG with Alpha fetoprotein [10] of 12.3. The MIF of FL1 in the assay with Alpha fetoprotein [10] is 11 and 13.

Consider MAB 384, Bodipy FL-X labeled (antibody), for which the MIF of Fm in assay [11] was found to be 25; in [12] it was 27; in assay [13], 36; in assay [14], 23; in assay [15] it was 44; in [16], 70. For the same substance, the MIF was 17 in the assay with Peptide 1 …-biotin; 1020 in assay [17]; 20 with Peptide 6 …-biotin; 23 with Peptide 7 …-biotin; 36 in the assay with Peptide 9 …-biotin.

Turning to “AB633 affinity purified polyclonal anti-hCG antibody, Bodipy FL-CASE labeled”, the MIF of Fm in assay [18] was 1290 and 1380; in assay [19] it was 1960; in assay [20], 120 and 147; in [21], 8790; in [22] it was 175; in assay [23], 2420. Moreover, the MIF of Fm in assay [24] worked out at 3160; in assay [25], 2070; in assay [26] it was 1200; in assay [27] it was 491; in assay [28], 55; in [29], 104. In addition, the MIF of Fm stood at 108 in [30], 2980 in assay [31], 50 with Alpha fetoprotein [32] and 163 in assay [34]. The MIF AVG in assay [33] was determined as 272; in assay [35] it was 7.33; in assay [36], 272. For the same substance, the MIF of FL1 was 268 and 276 and 271 in [33]; 8 and 7 in assay [35]; 270 and 264 and 283 in assay [36].
